Measured values: US20150258192A1, “COMPOSITIONS AND METHODS FOR PREVENTING OR TREATING CHRONIC LUNG ALLOGRAFT DYSFUNCTION (CLAD) AND IDIOPATHIC PULMONARY FIBROSIS (IPF)” (priority 2014, published 2015)
No end group written: not given here.

Assays:
Assay in all cases: Kinase Profiling Assay
Format in all cases: biochemical
Conditions in all cases: peptide 100 μM
[1] = target: T1, MEK1(h) (Homo sapiens, UniProt Q02750)
T1 construct: purchased Millipore
Method in brief: (§1)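 In this 266-kinase specificity panel, every measurement was duplicated. Transfer of labeled phosphate from ATP to a cationic substrate was quantified after the substrate adhered to an anionic filter membrane and was scintillation-counted, then related to a full-activity control.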

[2] = target: T2, EphA3(h) (Homo sapiens, UniProt P29320)
T2 sequence (P29320 21-983): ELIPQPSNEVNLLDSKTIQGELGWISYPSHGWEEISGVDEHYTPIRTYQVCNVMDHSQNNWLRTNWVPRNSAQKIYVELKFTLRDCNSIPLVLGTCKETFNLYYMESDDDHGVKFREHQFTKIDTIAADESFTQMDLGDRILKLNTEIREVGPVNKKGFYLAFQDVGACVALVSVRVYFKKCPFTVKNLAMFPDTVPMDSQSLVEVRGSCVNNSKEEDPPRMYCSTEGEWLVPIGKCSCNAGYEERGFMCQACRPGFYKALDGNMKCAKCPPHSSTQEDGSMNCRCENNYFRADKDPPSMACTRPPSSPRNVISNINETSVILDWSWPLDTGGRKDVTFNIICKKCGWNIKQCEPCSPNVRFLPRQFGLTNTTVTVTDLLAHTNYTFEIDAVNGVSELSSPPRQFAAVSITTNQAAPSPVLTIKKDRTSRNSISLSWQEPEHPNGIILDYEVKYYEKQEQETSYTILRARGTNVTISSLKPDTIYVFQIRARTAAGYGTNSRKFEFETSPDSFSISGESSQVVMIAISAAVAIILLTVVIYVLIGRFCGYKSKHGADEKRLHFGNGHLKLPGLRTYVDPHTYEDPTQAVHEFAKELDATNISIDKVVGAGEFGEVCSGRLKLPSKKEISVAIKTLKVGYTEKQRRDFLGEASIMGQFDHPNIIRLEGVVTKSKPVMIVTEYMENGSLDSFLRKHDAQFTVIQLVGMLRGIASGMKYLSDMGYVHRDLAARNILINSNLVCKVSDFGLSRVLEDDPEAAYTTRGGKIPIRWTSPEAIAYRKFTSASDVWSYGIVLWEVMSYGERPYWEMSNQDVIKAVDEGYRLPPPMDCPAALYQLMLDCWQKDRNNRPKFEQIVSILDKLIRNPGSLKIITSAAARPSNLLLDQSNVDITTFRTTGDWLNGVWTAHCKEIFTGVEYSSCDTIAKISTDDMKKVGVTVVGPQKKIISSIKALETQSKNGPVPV
Method in brief: as §1

[3] = target: CaMKIδ(h) (Homo sapiens, UniProt Q8IU85)
CaMKIδ(h), sequence (Q8IU85 whole entry): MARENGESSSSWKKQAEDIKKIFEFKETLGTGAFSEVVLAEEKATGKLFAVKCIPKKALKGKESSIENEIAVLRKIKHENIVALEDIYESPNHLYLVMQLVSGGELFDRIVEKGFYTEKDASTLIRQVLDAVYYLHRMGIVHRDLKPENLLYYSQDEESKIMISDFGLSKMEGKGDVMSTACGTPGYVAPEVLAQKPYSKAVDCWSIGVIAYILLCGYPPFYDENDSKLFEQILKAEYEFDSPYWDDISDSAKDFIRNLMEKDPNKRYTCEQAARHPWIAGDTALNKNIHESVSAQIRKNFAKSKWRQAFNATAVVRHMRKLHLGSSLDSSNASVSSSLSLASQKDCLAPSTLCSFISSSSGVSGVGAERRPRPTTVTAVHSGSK
Method in brief: as §1

[4] = target: TrkA(h) (Homo sapiens, UniProt P04629)
TrkA(h), sequence (P04629 33-796): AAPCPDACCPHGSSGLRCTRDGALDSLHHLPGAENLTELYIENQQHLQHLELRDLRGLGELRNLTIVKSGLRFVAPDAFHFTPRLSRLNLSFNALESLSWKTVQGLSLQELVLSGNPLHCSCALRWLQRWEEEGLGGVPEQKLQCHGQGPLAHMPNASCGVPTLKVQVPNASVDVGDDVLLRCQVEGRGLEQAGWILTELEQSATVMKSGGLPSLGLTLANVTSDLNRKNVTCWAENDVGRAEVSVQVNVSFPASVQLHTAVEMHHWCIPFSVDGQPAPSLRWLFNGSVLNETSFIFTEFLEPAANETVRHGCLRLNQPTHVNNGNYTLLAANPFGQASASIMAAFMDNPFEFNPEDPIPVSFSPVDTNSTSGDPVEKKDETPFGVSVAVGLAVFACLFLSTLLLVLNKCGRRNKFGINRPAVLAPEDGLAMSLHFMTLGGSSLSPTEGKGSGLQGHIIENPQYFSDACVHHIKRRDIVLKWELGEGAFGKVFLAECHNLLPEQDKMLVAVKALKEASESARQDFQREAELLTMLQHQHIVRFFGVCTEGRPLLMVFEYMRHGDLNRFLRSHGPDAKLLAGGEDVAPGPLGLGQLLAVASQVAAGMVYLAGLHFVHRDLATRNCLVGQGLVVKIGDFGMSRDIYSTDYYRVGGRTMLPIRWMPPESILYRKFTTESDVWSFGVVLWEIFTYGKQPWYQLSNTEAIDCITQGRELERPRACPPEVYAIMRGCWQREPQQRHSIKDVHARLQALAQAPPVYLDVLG
Method in brief: as §1

[5] = target: T3, DMPK(h) (Homo sapiens, UniProt Q09013)
T3 sequence (Q09013 1-629): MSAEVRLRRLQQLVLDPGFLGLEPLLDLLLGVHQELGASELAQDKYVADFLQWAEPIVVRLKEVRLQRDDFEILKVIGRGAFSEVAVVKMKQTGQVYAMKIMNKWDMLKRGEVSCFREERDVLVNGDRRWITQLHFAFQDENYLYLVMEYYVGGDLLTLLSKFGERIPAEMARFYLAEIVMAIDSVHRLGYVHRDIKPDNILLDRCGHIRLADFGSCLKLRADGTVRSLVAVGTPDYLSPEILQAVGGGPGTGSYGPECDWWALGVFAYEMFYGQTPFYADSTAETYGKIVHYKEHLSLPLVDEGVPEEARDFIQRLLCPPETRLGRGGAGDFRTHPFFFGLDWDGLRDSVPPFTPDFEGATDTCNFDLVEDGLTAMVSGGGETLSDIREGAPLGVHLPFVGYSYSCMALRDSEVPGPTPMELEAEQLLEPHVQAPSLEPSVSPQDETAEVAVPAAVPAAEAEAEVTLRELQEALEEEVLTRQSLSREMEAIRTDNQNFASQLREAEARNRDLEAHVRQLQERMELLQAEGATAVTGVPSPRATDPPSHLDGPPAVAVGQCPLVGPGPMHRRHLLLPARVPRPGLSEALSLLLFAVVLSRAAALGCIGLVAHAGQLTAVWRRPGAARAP
Method in brief: as §1

[6] = target: T4, Rsk4(h) (Homo sapiens, UniProt Q9UK32)
T4 construct: purchased Millipore
T4 sequence (Q9UK32 whole entry): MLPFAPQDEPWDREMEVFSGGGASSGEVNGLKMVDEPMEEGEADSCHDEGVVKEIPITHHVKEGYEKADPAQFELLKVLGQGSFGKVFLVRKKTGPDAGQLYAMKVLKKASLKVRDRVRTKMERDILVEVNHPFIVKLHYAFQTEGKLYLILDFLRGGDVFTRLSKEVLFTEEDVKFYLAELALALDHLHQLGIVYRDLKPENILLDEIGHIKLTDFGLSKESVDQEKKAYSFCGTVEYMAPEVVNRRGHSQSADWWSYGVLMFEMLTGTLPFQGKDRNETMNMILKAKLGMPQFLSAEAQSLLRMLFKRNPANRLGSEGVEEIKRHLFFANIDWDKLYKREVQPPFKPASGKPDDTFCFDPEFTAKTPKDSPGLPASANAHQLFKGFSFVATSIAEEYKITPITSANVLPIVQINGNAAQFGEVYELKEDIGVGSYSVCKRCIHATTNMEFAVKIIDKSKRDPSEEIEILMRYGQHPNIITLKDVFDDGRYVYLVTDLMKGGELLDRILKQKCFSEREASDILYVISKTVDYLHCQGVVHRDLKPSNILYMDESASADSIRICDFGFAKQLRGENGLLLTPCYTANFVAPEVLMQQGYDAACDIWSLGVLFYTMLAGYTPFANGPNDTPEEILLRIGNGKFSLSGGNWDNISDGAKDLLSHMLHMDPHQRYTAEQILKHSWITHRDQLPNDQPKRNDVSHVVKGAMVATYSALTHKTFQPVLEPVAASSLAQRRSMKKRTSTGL
Method in brief: as §1

[7] = target: T5, PKD2(h) (Homo sapiens, UniProt Q9BZL6)
T5 sequence (Q9BZL6 1-878): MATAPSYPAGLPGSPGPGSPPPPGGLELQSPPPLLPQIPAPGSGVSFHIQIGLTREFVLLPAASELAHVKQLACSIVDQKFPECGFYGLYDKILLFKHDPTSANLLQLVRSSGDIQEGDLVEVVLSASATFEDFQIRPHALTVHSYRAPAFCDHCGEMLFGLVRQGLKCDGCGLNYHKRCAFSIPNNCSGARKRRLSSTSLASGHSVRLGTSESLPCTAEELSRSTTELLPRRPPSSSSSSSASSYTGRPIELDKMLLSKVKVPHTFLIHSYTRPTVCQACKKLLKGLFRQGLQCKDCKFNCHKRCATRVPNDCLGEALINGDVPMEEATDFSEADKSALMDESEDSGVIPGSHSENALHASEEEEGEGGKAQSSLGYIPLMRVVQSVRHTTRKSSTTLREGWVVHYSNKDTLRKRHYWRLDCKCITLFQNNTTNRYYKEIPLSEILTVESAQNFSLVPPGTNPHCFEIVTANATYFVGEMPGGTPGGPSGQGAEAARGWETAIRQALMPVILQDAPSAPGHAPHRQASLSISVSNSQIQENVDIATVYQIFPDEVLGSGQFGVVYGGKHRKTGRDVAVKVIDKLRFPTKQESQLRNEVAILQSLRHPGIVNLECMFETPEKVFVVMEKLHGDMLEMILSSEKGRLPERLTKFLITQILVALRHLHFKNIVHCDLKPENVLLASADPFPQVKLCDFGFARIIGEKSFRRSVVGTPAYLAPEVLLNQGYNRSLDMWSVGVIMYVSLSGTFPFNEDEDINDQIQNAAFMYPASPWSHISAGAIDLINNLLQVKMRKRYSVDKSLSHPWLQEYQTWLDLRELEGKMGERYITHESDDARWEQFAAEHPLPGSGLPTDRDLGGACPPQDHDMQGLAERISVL
Method in brief: as §1

| Sequence | % activity [1] [%] | % activity [2] [%] | % activity [3] [%] | % activity [4] [%] | % activity [5] [%] | % activity [6] [%] | % activity [7] [%] |
| --- | --- | --- | --- | --- | --- | --- | --- |
| FAKLAARLYRKALARQLGVAA [MMI-0300] | 77 | 6 | 10 | 25 | 59 | 90 | 33 |
| HRRIKAWLKKIKALARQLGVAA (Mammal) [MMI-0500] | 21 | 33 | 0 | 24 | 12 | 29 | 10 |
| KAFAKLAARLYRKALARQLGVAA [MMI-0400] | 77 | 12 | 17 | 17 | 54 | 91 | 25 |
| YARAAARQARAKALARQLGVAA [MMI-0100] |  |  |  | 74 |  | 99 | 84 |
| YARAAARQARAKALNRQLGVA (Mammal) [MMI-0200] |  |  | 47 |  | 66 | 125 | 78 |
